Results from patent US20190338009A1 (ZEALAND PHARMA A S, published 2019).
Square brackets hold non-standard residues; d marks the D form. Aib = CC(C)(N)C(=O)O

T1: human GLP-2 receptor (hGLP2-R) (human, UniProt O95838 1-553)
T1 sequence (looked up): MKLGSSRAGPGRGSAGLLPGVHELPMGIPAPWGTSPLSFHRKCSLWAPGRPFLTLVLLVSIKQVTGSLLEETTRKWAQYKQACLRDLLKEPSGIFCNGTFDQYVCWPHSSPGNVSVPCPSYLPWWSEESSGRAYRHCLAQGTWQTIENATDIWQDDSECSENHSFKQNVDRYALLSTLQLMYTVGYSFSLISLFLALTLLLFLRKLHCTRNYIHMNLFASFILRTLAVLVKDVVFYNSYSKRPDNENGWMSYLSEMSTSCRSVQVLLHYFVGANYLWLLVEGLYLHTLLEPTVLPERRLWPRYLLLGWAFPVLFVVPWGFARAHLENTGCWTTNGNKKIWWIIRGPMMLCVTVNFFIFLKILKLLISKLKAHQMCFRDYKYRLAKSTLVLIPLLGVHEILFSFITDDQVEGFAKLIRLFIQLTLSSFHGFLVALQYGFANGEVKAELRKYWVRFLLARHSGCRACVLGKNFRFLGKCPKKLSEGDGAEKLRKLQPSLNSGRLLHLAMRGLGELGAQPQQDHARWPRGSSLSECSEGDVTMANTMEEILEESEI

B1: Compound 25 (peptide)
peptide: H-H[Aib]EGSFTSELATILDEQAARDFIAWLIAQKITD-OH
SMILES: CC[C@H](C)[C@H](NC(=O)[C@H](CC(C)C)NC(=O)[C@H](Cc1c[nH]c2ccccc12)NC(=O)[C@H](C)NC(=O)[C@@H](NC(=O)[C@H](Cc1ccccc1)NC(=O)[C@H](CC(=O)O)NC(=O)[C@H](CCCNC(=N)N)NC(=O)[C@H](C)NC(=O)[C@H](C)NC(=O)[C@H](CCC(N)=O)NC(=O)[C@H](CCC(=O)O)NC(=O)[C@H](CC(=O)O)NC(=O)[C@H](CC(C)C)NC(=O)[C@@H](NC(=O)[C@@H](NC(=O)[C@H](C)NC(=O)[C@H](CC(C)C)NC(=O)[C@H](CCC(=O)O)NC(=O)[C@H](CO)NC(=O)[C@@H](NC(=O)[C@H](Cc1ccccc1)NC(=O)[C@H](CO)NC(=O)CNC(=O)[C@H](CCC(=O)O)NC(=O)C(C)(C)NC(=O)[C@@H](N)Cc1c[nH]cn1)[C@@H](C)O)[C@@H](C)O)[C@@H](C)CC)[C@@H](C)CC)C(=O)N[C@@H](C)C(=O)N[C@@H](CCC(N)=O)C(=O)N[C@@H](CCCCN)C(=O)N[C@H](C(=O)N[C@H](C(=O)N[C@@H](CC(=O)O)C(=O)O)[C@@H](C)O)[C@@H](C)CC
B2: Compound 26 (peptide)
peptide: H-H[Aib]EGTFTSELATILDEQAARDFIAWLQAQKITD-OH
SMILES: CC[C@H](C)[C@H](NC(=O)[C@H](Cc1ccccc1)NC(=O)[C@H](CC(=O)O)NC(=O)[C@H](CCCNC(=N)N)NC(=O)[C@H](C)NC(=O)[C@H](C)NC(=O)[C@H](CCC(N)=O)NC(=O)[C@H](CCC(=O)O)NC(=O)[C@H](CC(=O)O)NC(=O)[C@H](CC(C)C)NC(=O)[C@@H](NC(=O)[C@@H](NC(=O)[C@H](C)NC(=O)[C@H](CC(C)C)NC(=O)[C@H](CCC(=O)O)NC(=O)[C@H](CO)NC(=O)[C@@H](NC(=O)[C@H](Cc1ccccc1)NC(=O)[C@@H](NC(=O)CNC(=O)[C@H](CCC(=O)O)NC(=O)C(C)(C)NC(=O)[C@@H](N)Cc1c[nH]cn1)[C@@H](C)O)[C@@H](C)O)[C@@H](C)O)[C@@H](C)CC)C(=O)N[C@@H](C)C(=O)N[C@@H](Cc1c[nH]c2ccccc12)C(=O)N[C@@H](CC(C)C)C(=O)N[C@@H](CCC(N)=O)C(=O)N[C@@H](C)C(=O)N[C@@H](CCC(N)=O)C(=O)N[C@@H](CCCCN)C(=O)N[C@H](C(=O)N[C@H](C(=O)N[C@@H](CC(=O)O)C(=O)O)[C@@H](C)O)[C@@H](C)CC
B3: Compound 27 (peptide)
peptide: H-H[Aib]EGTFTSELSTILDEQAARDFIAWLHAQKITD-OH
SMILES: CC[C@H](C)[C@H](NC(=O)[C@H](Cc1ccccc1)NC(=O)[C@H](CC(=O)O)NC(=O)[C@H](CCCNC(=N)N)NC(=O)[C@H](C)NC(=O)[C@H](C)NC(=O)[C@H](CCC(N)=O)NC(=O)[C@H](CCC(=O)O)NC(=O)[C@H](CC(=O)O)NC(=O)[C@H](CC(C)C)NC(=O)[C@@H](NC(=O)[C@@H](NC(=O)[C@H](CO)NC(=O)[C@H](CC(C)C)NC(=O)[C@H](CCC(=O)O)NC(=O)[C@H](CO)NC(=O)[C@@H](NC(=O)[C@H](Cc1ccccc1)NC(=O)[C@@H](NC(=O)CNC(=O)[C@H](CCC(=O)O)NC(=O)C(C)(C)NC(=O)[C@@H](N)Cc1c[nH]cn1)[C@@H](C)O)[C@@H](C)O)[C@@H](C)O)[C@@H](C)CC)C(=O)N[C@@H](C)C(=O)N[C@@H](Cc1c[nH]c2ccccc12)C(=O)N[C@@H](CC(C)C)C(=O)N[C@@H](Cc1c[nH]cn1)C(=O)N[C@@H](C)C(=O)N[C@@H](CCC(N)=O)C(=O)N[C@@H](CCCCN)C(=O)N[C@H](C(=O)N[C@H](C(=O)N[C@@H](CC(=O)O)C(=O)O)[C@@H](C)O)[C@@H](C)CC
B4: Compound 29 (peptide)
peptide: H-H[Aib]EGTFTDELATILDEQAARDFIAWLQAQKITD-OH
SMILES: CC[C@H](C)[C@H](NC(=O)[C@H](Cc1ccccc1)NC(=O)[C@H](CC(=O)O)NC(=O)[C@H](CCCNC(=N)N)NC(=O)[C@H](C)NC(=O)[C@H](C)NC(=O)[C@H](CCC(N)=O)NC(=O)[C@H](CCC(=O)O)NC(=O)[C@H](CC(=O)O)NC(=O)[C@H](CC(C)C)NC(=O)[C@@H](NC(=O)[C@@H](NC(=O)[C@H](C)NC(=O)[C@H](CC(C)C)NC(=O)[C@H](CCC(=O)O)NC(=O)[C@H](CC(=O)O)NC(=O)[C@@H](NC(=O)[C@H](Cc1ccccc1)NC(=O)[C@@H](NC(=O)CNC(=O)[C@H](CCC(=O)O)NC(=O)C(C)(C)NC(=O)[C@@H](N)Cc1c[nH]cn1)[C@@H](C)O)[C@@H](C)O)[C@@H](C)O)[C@@H](C)CC)C(=O)N[C@@H](C)C(=O)N[C@@H](Cc1c[nH]c2ccccc12)C(=O)N[C@@H](CC(C)C)C(=O)N[C@@H](CCC(N)=O)C(=O)N[C@@H](C)C(=O)N[C@@H](CCC(N)=O)C(=O)N[C@@H](CCCCN)C(=O)N[C@H](C(=O)N[C@H](C(=O)N[C@@H](CC(=O)O)C(=O)O)[C@@H](C)O)[C@@H](C)CC
B5: Compound 28 (peptide)
peptide: H-H[Aib]EGSFTSELATILDEQAARDFIAWLYAHKITD-OH
SMILES: CC[C@H](C)[C@H](NC(=O)[C@H](Cc1ccccc1)NC(=O)[C@H](CC(=O)O)NC(=O)[C@H](CCCNC(=N)N)NC(=O)[C@H](C)NC(=O)[C@H](C)NC(=O)[C@H](CCC(N)=O)NC(=O)[C@H](CCC(=O)O)NC(=O)[C@H](CC(=O)O)NC(=O)[C@H](CC(C)C)NC(=O)[C@@H](NC(=O)[C@@H](NC(=O)[C@H](C)NC(=O)[C@H](CC(C)C)NC(=O)[C@H](CCC(=O)O)NC(=O)[C@H](CO)NC(=O)[C@@H](NC(=O)[C@H](Cc1ccccc1)NC(=O)[C@H](CO)NC(=O)CNC(=O)[C@H](CCC(=O)O)NC(=O)C(C)(C)NC(=O)[C@@H](N)Cc1c[nH]cn1)[C@@H](C)O)[C@@H](C)O)[C@@H](C)CC)C(=O)N[C@@H](C)C(=O)N[C@@H](Cc1c[nH]c2ccccc12)C(=O)N[C@@H](CC(C)C)C(=O)N[C@@H](Cc1ccc(O)cc1)C(=O)N[C@@H](C)C(=O)N[C@@H](Cc1c[nH]cn1)C(=O)N[C@@H](CCCCN)C(=O)N[C@H](C(=O)N[C@H](C(=O)N[C@@H](CC(=O)O)C(=O)O)[C@@H](C)O)[C@@H](C)CC
B6: Compound 24 (peptide)
peptide: H-H[Aib]EGSFTSELATILDEQAARDFIAWLQAHKITD-OH
SMILES: CC[C@H](C)[C@H](NC(=O)[C@H](Cc1ccccc1)NC(=O)[C@H](CC(=O)O)NC(=O)[C@H](CCCNC(=N)N)NC(=O)[C@H](C)NC(=O)[C@H](C)NC(=O)[C@H](CCC(N)=O)NC(=O)[C@H](CCC(=O)O)NC(=O)[C@H](CC(=O)O)NC(=O)[C@H](CC(C)C)NC(=O)[C@@H](NC(=O)[C@@H](NC(=O)[C@H](C)NC(=O)[C@H](CC(C)C)NC(=O)[C@H](CCC(=O)O)NC(=O)[C@H](CO)NC(=O)[C@@H](NC(=O)[C@H](Cc1ccccc1)NC(=O)[C@H](CO)NC(=O)CNC(=O)[C@H](CCC(=O)O)NC(=O)C(C)(C)NC(=O)[C@@H](N)Cc1c[nH]cn1)[C@@H](C)O)[C@@H](C)O)[C@@H](C)CC)C(=O)N[C@@H](C)C(=O)N[C@@H](Cc1c[nH]c2ccccc12)C(=O)N[C@@H](CC(C)C)C(=O)N[C@@H](CCC(N)=O)C(=O)N[C@@H](C)C(=O)N[C@@H](Cc1c[nH]cn1)C(=O)N[C@@H](CCCCN)C(=O)N[C@H](C(=O)N[C@H](C(=O)N[C@@H](CC(=O)O)C(=O)O)[C@@H](C)O)[C@@H](C)CC
B7: Compound 1 (peptide)
peptide: H-H[Aib]EGSFTSELATILDEQAARDFIAWLIAHKITD-OH
SMILES: CC[C@H](C)[C@H](NC(=O)[C@H](CC(C)C)NC(=O)[C@H](Cc1c[nH]c2ccccc12)NC(=O)[C@H](C)NC(=O)[C@@H](NC(=O)[C@H](Cc1ccccc1)NC(=O)[C@H](CC(=O)O)NC(=O)[C@H](CCCNC(=N)N)NC(=O)[C@H](C)NC(=O)[C@H](C)NC(=O)[C@H](CCC(N)=O)NC(=O)[C@H](CCC(=O)O)NC(=O)[C@H](CC(=O)O)NC(=O)[C@H](CC(C)C)NC(=O)[C@@H](NC(=O)[C@@H](NC(=O)[C@H](C)NC(=O)[C@H](CC(C)C)NC(=O)[C@H](CCC(=O)O)NC(=O)[C@H](CO)NC(=O)[C@@H](NC(=O)[C@H](Cc1ccccc1)NC(=O)[C@H](CO)NC(=O)CNC(=O)[C@H](CCC(=O)O)NC(=O)C(C)(C)NC(=O)[C@@H](N)Cc1c[nH]cn1)[C@@H](C)O)[C@@H](C)O)[C@@H](C)CC)[C@@H](C)CC)C(=O)N[C@@H](C)C(=O)N[C@@H](Cc1c[nH]cn1)C(=O)N[C@@H](CCCCN)C(=O)N[C@H](C(=O)N[C@H](C(=O)N[C@@H](CC(=O)O)C(=O)O)[C@@H](C)O)[C@@H](C)CC

What was measured:
[1] = target: T1, human GLP-2 receptor (hGLP2-R); assay: cell-based or functional assay
[2] = target: human glucagon-like peptide 1 receptor (GLP-1R) (human, UniProt P43220 24-463); assay: cell-based or functional assay

Binder | EC50 GLP-2 (nM); cAMP AlphaScreen, HEK293 cells expressing human GLP-2R [1] [nM] | EC50 GLP-1 (nM); cAMP AlphaScreen, HEK293 cells expressing human GLP-1R [2] [nM]
B1 | 0.062 | 0.008
B2 | 0.19 | 0.013
B3 | 0.37 | 0.12
B4 | 0.11 | 0.044
B5 | 0.024 | 0.11
B6 | 0.049 | 0.042
B7 | 0.036 | 0.014
